Test [1] deals with T1, human NMI (N-myc Interacting protein) (human, UniProt Q13287 1-307, limits assumed).
T1 construct: Immunogen and ELISA coating antigen; also called hNMI; antigen 1
T1 sequence (looked up): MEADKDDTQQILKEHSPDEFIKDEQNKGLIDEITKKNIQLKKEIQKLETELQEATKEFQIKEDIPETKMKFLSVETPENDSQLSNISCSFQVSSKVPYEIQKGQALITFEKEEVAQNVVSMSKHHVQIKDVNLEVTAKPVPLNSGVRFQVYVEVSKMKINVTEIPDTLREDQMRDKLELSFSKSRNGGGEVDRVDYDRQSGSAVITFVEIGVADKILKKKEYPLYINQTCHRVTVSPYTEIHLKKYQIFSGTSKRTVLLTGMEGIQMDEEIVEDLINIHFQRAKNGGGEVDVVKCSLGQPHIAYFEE
As to the kind of experiment: I-ELISA, hNMI coated 1 ug/mL; antibody 625 ng/mL.

The target in test [2] is T1, human NMI (N-myc Interacting protein). As to the kind of experiment: I-ELISA, hNMI coated 1 ug/mL; antibody 1250 ng/mL.
Test [3] has the same target. As to the kind of experiment: I-ELISA, hNMI coated 1 ug/mL; antibody 2500 ng/mL.
For test [4] the target is unchanged. Put plainly: indirect ELISA, human NMI coated (repeats Table 3).
For test [5] the target is unchanged. Put plainly: I-ELISA, hNMI coated 1 ug/mL; antibody 312.5 ng/mL.
For test [6] the target is unchanged. As to the kind of experiment: I-ELISA, hNMI coated 1 ug/mL; antibody 156.25 ng/mL.
Test [7] shares this target. Put plainly: I-ELISA, hNMI coated 1 ug/mL; antibody 78.125 ng/mL.
Test [8] shares this target. Put plainly: I-ELISA, hNMI coated 1 ug/mL; antibody 39.0625 ng/mL.
The target is the same in test [9]. As to the kind of experiment: I-ELISA, hNMI coated 1 ug/mL; antibody 19.53125 ng/mL.
The target is the same in test [10]. Put plainly: I-ELISA, hNMI coated 1 ug/mL; antibody 9.765625 ng/mL.
Test [11] has the same target. As to the kind of experiment: I-ELISA, hNMI coated 1 ug/mL; antibody 1.2207031 ng/mL.
Test [12] has the same target. Put plainly: I-ELISA, hNMI coated 1 ug/mL; antibody 2.4414063 ng/mL.
For test [13] the target is unchanged. As to the kind of experiment: I-ELISA, hNMI coated 1 ug/mL; antibody 4.8828125 ng/mL.
Test [14] has the same target. As to the kind of experiment: indirect ELISA, human NMI coated; supernatant dilution series.
Test [15] has the same target. As to the kind of experiment: sandwich ELISA; coating antibody 2.5 ug/mL, detection 94C4-biotin 0.5 ug/mL.

B1: 240B10-1 (antibody, V domains shown)
VH: QSLEESGGRLVTPGGSLTLTCTVSGIDLSSYTMGWVRQAPGKGLEYIGIISGGGRTYYASWAKGRFTISKTSSTTVDLKVTSLTTEDTATYFCARIYTLWGQGTLVTVSS
VL: QVLTQTLASVSAAVGGTVTINCQSSQSVYNNDYLAWFQQKSGQPPKQLIHSASKLASGVPSRFKGSGSGTQFTLTINDVQCDDAATYYCLGGYDCYSADCNVFGGGTEVVVK
notes: Rabbit monoclonal antibody; also called 240B10-1-biotin (biotin-labelled form)
With B1, the OD450 amounted to 2.2 OD450 in [1]; 2.13 OD450 in test [2]; 2.15 OD450 in test [3]; 2.19 OD450 in [5]; 1.85 OD450 in [6]; 1.46 OD450 in [7]. Besides, the OD450 was 0.996 OD450 in [8]; 0.573 OD450 in test [9]; 0.333 OD450 in test [10]; 0.077 OD450 in [11]; 0.105 OD450 in test [12]; 0.163 OD450 in [13]. The EC50 in test [4] and in test [14] was 2.6 ng/mL throughout. For the same molecule, in [15], the “detection limit (sensitivity)” value was determined as 60 pg/mL.

The values are drawn from patent publication EP4682166A1 (Guangzhou Enmai Biotechnology Co., Ltd, dated 2026).
